Test results: US20190056396A1 (GLENMARK PHARMACEUTICALS S A, published 2019)

B1: heavy chain-light chain homodimer of the BEAT antibody displayed on the cell membrane of CHO-S cells via the M1M2 transmembrane region (pHC-M1M2 + pLC) (antibody)
heavy: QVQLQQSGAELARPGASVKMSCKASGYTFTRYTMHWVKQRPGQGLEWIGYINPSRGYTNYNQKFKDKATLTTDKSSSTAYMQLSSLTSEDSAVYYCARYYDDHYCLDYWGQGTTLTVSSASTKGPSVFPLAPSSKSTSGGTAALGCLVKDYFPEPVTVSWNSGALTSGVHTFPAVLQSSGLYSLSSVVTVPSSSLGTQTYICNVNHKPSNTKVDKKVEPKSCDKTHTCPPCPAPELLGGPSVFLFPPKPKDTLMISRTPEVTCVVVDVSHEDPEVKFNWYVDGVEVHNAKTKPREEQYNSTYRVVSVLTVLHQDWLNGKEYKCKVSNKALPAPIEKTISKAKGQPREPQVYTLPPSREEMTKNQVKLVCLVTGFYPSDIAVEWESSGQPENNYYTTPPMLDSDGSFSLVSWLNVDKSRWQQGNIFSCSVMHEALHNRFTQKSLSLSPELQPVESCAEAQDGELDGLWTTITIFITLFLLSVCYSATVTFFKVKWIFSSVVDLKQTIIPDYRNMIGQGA
light: QIVLTQSPAIMSASPGEKVTMTCSASSSVSYMNWYQQKSGTSPKRWIYDTSKLASGVPAHFRGSGSGTSYSLTISGMEAEDAATYYCQQWSSNPFTFGSGTKLEINRTVAAPSVFIFPPSDEQLKSGTASVVCLLNNFYPREAKVQWKVDNALQSGNSQESVTEQDSKDSTYSLSSTLTLSKADYEKHKVYACEVTHQGLSSPVTKSFNRGEC
notes: also called Fab-DIM; Fab homodimer
B2: secreted heavy chain-light chain homodimer of the BEAT antibody (antibody)
heavy: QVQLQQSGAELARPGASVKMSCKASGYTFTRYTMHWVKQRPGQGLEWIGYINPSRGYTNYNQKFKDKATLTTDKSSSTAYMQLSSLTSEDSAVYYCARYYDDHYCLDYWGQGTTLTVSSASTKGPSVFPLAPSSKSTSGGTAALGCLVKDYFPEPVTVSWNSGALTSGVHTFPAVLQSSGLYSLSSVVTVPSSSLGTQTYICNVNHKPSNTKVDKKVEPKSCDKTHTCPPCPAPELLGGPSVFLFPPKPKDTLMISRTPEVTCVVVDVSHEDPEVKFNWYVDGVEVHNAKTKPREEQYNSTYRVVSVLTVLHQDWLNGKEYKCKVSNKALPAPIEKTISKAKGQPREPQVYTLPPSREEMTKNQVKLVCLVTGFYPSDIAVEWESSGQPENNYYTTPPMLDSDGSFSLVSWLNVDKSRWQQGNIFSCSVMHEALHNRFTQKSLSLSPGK
light: B1 light
notes: as for B1

Columns and labels:
Protein A [1] = target: T1, Protein A (UniProt P38507 37-477); assay: flow cytometry, FITC-labelled Protein A on CHO-S cells transfected with pHC-M1M2 + pLC
T1 construct: also called Protein A biosensors

Protein A [2] = target: T1, Protein A; assay: Octet QK, Protein A biosensors, supernatant day 6

| Binder | binding result (Protein A [1]) | binding result (Protein A [2]) |
| --- | --- | --- |
| B1 | no binding |  |
| B2 |  | no binding |
